From article PMC13572447, “USP5 acts as a proteolytic switch to control SDE2 function via UBL-directed cleavage” (Nature Communications, 2026)

B2: wild-type USP5 (ubiquitin-specific protease 5), recombinant (enzyme, human, UniProt P45974-1 1-858, looked up)
chain: MAELSEEALLSVLPTIRVPKAGDRVHKDECAFSFDTPESEGGLYICMNTFLGFGKQYVERHFNKTGQRVYLHLRRTRRPKEEDPATGTGDPPRKKPTRLAIGVEGGFDLSEEKFELDEDVKIVILPDYLEIARDGLGGLPDIVRDRVTSAVEALLSADSASRKQEVQAWDGEVRQVSKHAFSLKQLDNPARIPPCGWKCSKCDMRENLWLNLTDGSILCGRRYFDGSGGNNHAVEHYRETGYPLAVKLGTITPDGADVYSYDEDDMVLDPSLAEHLSHFGIDMLKMQKTDKTMTELEIDMNQRIGEWELIQESGVPLKPLFGPGYTGIRNLGNSCYLNSVVQVLFSIPDFQRKYVDKLEKIFQNAPTDPTQDFSTQVAKLGHGLLSGEYSKPVPESGDGERVPEQKEVQDGIAPRMFKALIGKGHPEFSTNRQQDAQEFFLHLINMVERNCRSSENPNEVFRFLVEEKIKCLATEKVKYTQRVDYIMQLPVPMDAALNKEELLEYEEKKRQAEEEKMALPELVRAQVPFSSCLEAYGAPEQVDDFWSTALQAKSVAVKTTRFASFPDYLVIQIKKFTFGLDWVPKKLDVSIEMPEELDISQLRGTGLQPGEEELPDIAPPLVTPDEPKGSLGFYGNEDEDSFCSPHFSSPTSPMLDESVIIQLVEMGFPMDACRKAVYYTGNSGAEAAMNWVMSHMDDPDFANPLILPGSSGPGSTSAAADPPPEDCVTTIVSMGFSRDQALKALRATNNSLERAVDWIFSHIDDLDAEAAMDISEGRSAADSISESVPVGPKVRDGPGKYQLFAFISHMGTSTMCGHYVCHIKKEGRWVIYNDQKVCASEKPPKDLGYIYFYQRVAS
notes: ubiquitin-specific protease 5 (USP5), human; No removal of the His tag is described; the TR-FRET assay detects the His-tagged protein with an anti-His6 antibody; also called USP5^WT; His-USP5; source: E. coli BL21 (DE3), purified (Ni-NTA, SEC Superdex 200)
B3: catalytically inactive USP5 C335A, recombinant (enzyme, human, UniProt P45974-1 1-858, looked up)
chain: MAELSEEALLSVLPTIRVPKAGDRVHKDECAFSFDTPESEGGLYICMNTFLGFGKQYVERHFNKTGQRVYLHLRRTRRPKEEDPATGTGDPPRKKPTRLAIGVEGGFDLSEEKFELDEDVKIVILPDYLEIARDGLGGLPDIVRDRVTSAVEALLSADSASRKQEVQAWDGEVRQVSKHAFSLKQLDNPARIPPCGWKCSKCDMRENLWLNLTDGSILCGRRYFDGSGGNNHAVEHYRETGYPLAVKLGTITPDGADVYSYDEDDMVLDPSLAEHLSHFGIDMLKMQKTDKTMTELEIDMNQRIGEWELIQESGVPLKPLFGPGYTGIRNLGNSAYLNSVVQVLFSIPDFQRKYVDKLEKIFQNAPTDPTQDFSTQVAKLGHGLLSGEYSKPVPESGDGERVPEQKEVQDGIAPRMFKALIGKGHPEFSTNRQQDAQEFFLHLINMVERNCRSSENPNEVFRFLVEEKIKCLATEKVKYTQRVDYIMQLPVPMDAALNKEELLEYEEKKRQAEEEKMALPELVRAQVPFSSCLEAYGAPEQVDDFWSTALQAKSVAVKTTRFASFPDYLVIQIKKFTFGLDWVPKKLDVSIEMPEELDISQLRGTGLQPGEEELPDIAPPLVTPDEPKGSLGFYGNEDEDSFCSPHFSSPTSPMLDESVIIQLVEMGFPMDACRKAVYYTGNSGAEAAMNWVMSHMDDPDFANPLILPGSSGPGSTSAAADPPPEDCVTTIVSMGFSRDQALKALRATNNSLERAVDWIFSHIDDLDAEAAMDISEGRSAADSISESVPVGPKVRDGPGKYQLFAFISHMGTSTMCGHYVCHIKKEGRWVIYNDQKVCASEKPPKDLGYIYFYQRVAS
notes: ubiquitin-specific protease 5 (USP5), human, catalytic Cys335 changed to Ala; Named His-USP5^C335A in the TR-FRET assay; also called His-USP5^C335A; source: E. coli BL21 (DE3), purified (Ni-NTA, SEC Superdex 200)

Legend:
Conditions in all cases: both partners purified
[1] = biological target: B2; experiment: ITC; SDE2 construct or Ub titrated into USP5 construct; ITC200, 298 K; 50 mM HEPES, 100 mM NaCl, 1 mM TCEP, pH 7.5; duplicate experiments
[2] = biological target: B3; experiment: as above
USP5 C335R, recombinant = biological target: T1, USP5 C335R, recombinant (human, UniProt P45974-1 1-858, C335R); experiment: as above
T1 construct: ubiquitin-specific protease 5 (USP5), human, Cys335 changed to Arg; source: E. coli BL21 (DE3), purified (Ni-NTA, SEC Superdex 200)
T1 sequence (looked up): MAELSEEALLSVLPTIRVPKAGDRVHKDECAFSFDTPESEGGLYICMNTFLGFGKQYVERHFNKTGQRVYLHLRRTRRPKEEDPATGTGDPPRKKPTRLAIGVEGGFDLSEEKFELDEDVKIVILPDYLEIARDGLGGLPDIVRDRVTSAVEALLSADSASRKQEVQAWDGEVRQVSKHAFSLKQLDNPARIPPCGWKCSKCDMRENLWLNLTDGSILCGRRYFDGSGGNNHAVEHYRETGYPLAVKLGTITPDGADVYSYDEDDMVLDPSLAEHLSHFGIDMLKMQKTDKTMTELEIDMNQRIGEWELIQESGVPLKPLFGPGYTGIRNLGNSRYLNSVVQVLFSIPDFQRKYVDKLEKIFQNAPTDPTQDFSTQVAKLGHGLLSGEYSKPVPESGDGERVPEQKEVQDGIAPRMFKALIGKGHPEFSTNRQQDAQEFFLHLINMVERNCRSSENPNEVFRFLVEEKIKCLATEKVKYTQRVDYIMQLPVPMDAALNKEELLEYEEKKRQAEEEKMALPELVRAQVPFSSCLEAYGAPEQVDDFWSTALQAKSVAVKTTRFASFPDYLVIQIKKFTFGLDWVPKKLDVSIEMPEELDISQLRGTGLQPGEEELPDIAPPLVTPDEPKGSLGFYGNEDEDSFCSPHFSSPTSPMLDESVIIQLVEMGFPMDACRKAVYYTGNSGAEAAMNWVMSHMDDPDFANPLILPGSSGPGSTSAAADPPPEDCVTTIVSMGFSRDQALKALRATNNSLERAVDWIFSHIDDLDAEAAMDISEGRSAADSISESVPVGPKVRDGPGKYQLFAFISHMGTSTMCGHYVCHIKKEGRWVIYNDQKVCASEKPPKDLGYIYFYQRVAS

[3] = biological target: T2, ubiquitin (monoubiquitin) (human, UniProt P0CG48 1-76); experiment: HDX-MS; USP5^WT 6 µM with or without 200 µM ubiquitin or SDE2UBL, 30 min; 20 mM HEPES pH 7.5, 150 mM NaCl, 1 mM DTT; exchange 0.3 to 3000 s; pepsin digestion
T2 construct: ubiquitin, human

[4] = biological target: T3, Ub-PA activity-based probe (His-Ub-PA) (human, UniProt P0CG48 1-75, C-terminal propargylamide (PA) warhead); experiment: activity-based probe labelling (covalent adduct on SDS-PAGE); purified DUB 1 µM with probe 2 µM in 50 mM Tris pH 7.5, 1 mM DTT, 37 °C; quenched with LDS/DTT; shows only the covalent probe-enzyme adduct as a band shift
T3 construct: ubiquitin residues 1-75; The plasmid name holds a 3C site between His and Ub; also called Ub-ABP; source: plasmid pTXB1_His-3C-Ub (1-75); obtained by the same method as HA-SDE2UBL-PA

[5] = biological target: T2, ubiquitin (monoubiquitin); experiment: ITC; SDE2 construct or Ub titrated into USP5 construct; ITC200, 298 K; 50 mM HEPES, 100 mM NaCl, 1 mM TCEP, pH 7.5; duplicate experiments
[6] = biological target: B2; experiment: activity-based probe labelling (covalent adduct on SDS-PAGE); purified DUB 1 µM with probe 2 µM in 50 mM Tris pH 7.5, 1 mM DTT, 37 °C; quenched with LDS/DTT; shows only the covalent probe-enzyme adduct as a band shift

B1: SDE2 ubiquitin-like domain, SDE2UBL(1-77) (domain or fragment, human, UniProt Q6IQ49-1 1-77, looked up)
chain: MAEAAALVWIRGPGFGCKAVRCASGRCTVRDFIHRHCQDQNVPVENFFVKCNGALINTSDTVQHGAVYSLEPRLCGG
notes: Silencing Defective 2 (SDE2), human, N-terminal ubiquitin-like domain, residues 1-77, ending in the free Gly76-Gly77 motif; also called SDE2 1-77; source: E. coli BL21 (DE3), purified (Ni-NTA, SUMO protease, reverse Ni-NTA, SEC Superdex 75); not shown: His, N-terminal, cleaved; SUMO, N-terminal, cleaved
B1 was tested, and the Kd [1] was 26600 nM, the Kd [2] was 1670 nM and the “stoichiometry N” value [2] was 2. For the same binder, the Kd (USP5 C335R, recombinant) was 2150 nM and the “stoichiometry N” value (USP5 C335R, recombinant) was 1.

B2: binds [3]; binds [4].

Work on B3 yielded a Kd [5] of 11.7 ± 9.1 nM.

B4: HA-SDE2UBL-PA activity-based probe (domain or fragment, human, UniProt Q6IQ49-1 1-76, looked up)
chain: MAEAAALVWIRGPGFGCKAVRCASGRCTVRDFIHRHCQDQNVPVENFFVKCNGALINTSDTVQHGAVYSLEPRLCG
modifications: C-terminal propargylamide: Gly77 replaced with a propargyl electrophilic warhead
notes: Silencing Defective 2 (SDE2), human, ubiquitin-like domain residues 1-76; Reacts covalently with the catalytic cysteine of the protease that recognises it; also called HA-SDE2UBL-ABP; SDE2UBL probe; not shown: HA, N-terminal, kept
B4: binds [6].

B5: SDE2UBL without the terminal Gly77 (domain or fragment, human, UniProt Q6IQ49-1 1-76, looked up)
chain: MAEAAALVWIRGPGFGCKAVRCASGRCTVRDFIHRHCQDQNVPVENFFVKCNGALINTSDTVQHGAVYSLEPRLCG
notes: Silencing Defective 2 (SDE2), human, ubiquitin-like domain with the terminal Gly77 removed (residues 1-76); also called SDE2UBLΔG77
B5: binds [1].
